The source of these data is paper PMC4282956 (Journal of immunology (Baltimore, Md. : 1950), 2014).

For the test, the target named is HLA-B*57:01.L82R/LF9 (human | ). As to the kind of experiment: SPR.

One may read the Kd as the equilibrium constant for the complex coming apart. Low values mean a tighter complex, high ones a looser complex.

B1: Soluble KIR3DL1*001 (receptor)
chain: HMGGQDKPFLSAWPSAVVPRGGHVTLRCHYRHRFNNFMLYKEDRIHIPIFHGRIFQESFNMSPVTTAHAGNYTCRGSHPHSPTGWSAPSNPVVIMVTGNHRKPSLLAHPGPLVKSGERVILQCWSDIMFEHFFLHKEGISKDPSRLVGQIHDGVSKANFSIGPMMLALAGTYRCYGSVTHTPYQLSAPSDPLDIVVTGPYEKPSLSAQPGPKVQAGESVTLSCSSRSSYDMYHLSREGGAHERRLPAVRKVNRTFQADFPLGPATHGGTYRCFGSFRHSPYEWSDPSDPLLVSVTGNPS
Molecule B1 gave a Kd of 35.5 ± 8.34 µM.
